We go through six sequences from the supplement of paper PMC5998384.

The test system of data set [1] is HeLa Kyoto. The data set is described as follows: solubility change mitosis vs G1/S (difference of NP-40 vs SDS log2 ratios) (log2 ratio difference); higher = more soluble in mitosis.
For data set [2], the system named is HeLa Kyoto. Kind of data set: solubility in G1/S (NP-40 vs SDS abundance) (log2 ratio); higher = more soluble. The conditions noted are these: cell cycle stage: G1/S.
In data set [3] the test system is HeLa Kyoto. Kind of data set: thermal stability score vs G1/S (z-score of summed log2 fold changes over temperatures); higher = more thermally stable than in G1/S.
Data set [4] has as its system HeLa Kyoto. The data set is described as follows: melting temperature (median over replicates), in situ; higher = more thermally stable.
Where [5] appears, read: cell cycle stage: early G1 (4.5 h after nocodazole release).
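For melting temperature (median over replicates), in situ in this document: HeLa Kyoto cells synchronized by double thymidine or nocodazole block, proteins quantified by TMT10plex mass spectrometry, three independent biological replicates.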
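For solubility change mitosis vs G1/S (difference of NP-40 vs SDS log2 ratios) in this document: synchronized HeLa Kyoto cells (double thymidine block for G1/S, nocodazole release for mitosis), protein amounts in NP-40 versus SDS lysates quantified by mass spectrometry, three biological replicates.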
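For solubility in G1/S (NP-40 vs SDS abundance) in this document: HeLa Kyoto cells arrested at G1/S by double thymidine block, proteins quantified by TMT10plex mass spectrometry in mild NP-40 versus SDS extracts, three biological replicates.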
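For thermal stability score vs G1/S (z-score of summed log2 fold changes over temperatures) in this document: synchronized HeLa Kyoto cells, proteins quantified by TMT10plex mass spectrometry, three biological replicates, mitosis taken 0.5 h after nocodazole release, G1/S directly after double thymidine block.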

As to “MLGKGVVGGGGGTKAPKPSFVSYVRPEEIHTNEKEVTEKEVTLHLLPGEQLLCEASTVLKYVQEDSCQHGVYGRLVCTDFKIAFLGDDESALDNDETQFKNKVIGENDITLHCVDQIYGVFDEKKKTLFGQLKKYPEKLIIHCKDLRVFQFCLRYTKEEEVKRIVSGIIHHTQAPKLLKRLFLFSYATAAQNNTVTDPKNHTVMFDTLKDWCWELERTKGNMKYKAVSVNEGYKVCERLPAYFVVPTPLPEENVQRFQGHGIPIWCWSCHNGSALLKMSALPKEQDDGILQIQKSFLDGIYKTIHRPPYEIVKTEDLSSNFLSLQEIQTAYSKFKQLFLIDNSTEFWDTDIKWFSLLESSSWLDIIRRCLKKAIEITECMEAQNMNVLLLEENASDLCCLISSLVQLMMDPHCRTRIGFQSLIQKEWVMGGHCFLDRCNHLRQNDKEEVPVFLLFLDCVWQLVHQHPPAFEFTETYLTVLSDSLYIPIFSTFFFNSPHQKDTNMGREGQDTQSKPLNLLTVWDWSVQFEPKAQTLLKNPLYVEKPKLDKGQRKGMRFKHQRQLSLPLTQSKSSPKRGFFREETDHLIKNLLGKRISKLINSSDELQDNFREFYDSWHSKSTDYHGLLLPHIEGPEIKVWAQRYLRWIPEAQILGGGQVATLSKLLEMMEEVQSLQEKIDERHHSQQAPQAEAPCLLRNSARLSSLFPFALLQRHSSKPVLPTSGWKALGDEDDLAKREDEFVDLGDV [MTMR12]”, the “solubility change mitosis (log2)” value in data set [1] is -0.11. For the same sequence, in data set [2], the “solubility in G1/S (log2)” value was -0.0977. The thermal stability score in data set [3] (setting [5]) was -0.744; in data set [3] (cell cycle stage: mitosis), -0.447. Moreover, the figures for the melting temperature in data set [4] (cell cycle stage: G1/S) and in data set [4] (cell cycle stage: mitosis) were 56.1 °C and 56 °C, respectively.

Consider “MLGVRCLLRSVRFCSSAPFPKHKPSAKLSVRDALGAQNASGERIKIQGWIRSVRSQKEVLFLHVNDGSSLESLQVVADSGLDSRELNFGSSVEVQGQLIKSPSKRQNVELKAEKIKVIGNCDAKDFPIKYKERHPLEYLRQYPHFRCRTNVLGSILRIRSEATAAIHSFFKDSGFVHIHTPIITSNDSEGAGELFQLEPSGKLKVPEENFFNVPAFLTVSGQLHLEVMSGAFTQVFTFGPTFRAENSQSRRHLAEFYMIEAEISFVDSLQDLMQVIEELFKATTMMVLSKCPEDVELCHKFIAPGQKDRLEHMLKNNFLIISYTEAVEILKQASQNFTFTPEWGADLRTEHEKYLVKHCGNIPVFVINYPLTLKPFYMRDNEDGPQHTVAAVDLLVPGVGELFGGGLREERYHFLEERLARSGLTEVYQWYLDLRRFGSVPHGGFGMGFERYLQCILGVDNIKDVIPFPRFPHSCLL [NARS2]”, for which, in data set [1], the “solubility change mitosis (log2)” value is -0.147. In addition, the “solubility in G1/S (log2)” value in data set [2] is -0.141. Also, the results for the thermal stability score in data set [3] (setting [5]) and in data set [3] (cell cycle stage: mitosis) were -0.169 and 1.1, respectively. Moreover, the melting temperature amounted to 49.7 °C in data set [4] (cell cycle stage: G1/S) and 49.8 °C in data set [4] (cell cycle stage: mitosis).

As to “MLKAVILIGGPQKGTRFRPLSFEVPKPLFPVAGVPMIQHHIEACAQVPGMQEILLIGFYQPDEPLTQFLEAAQQEFNLPVRYLQEFAPLGTGGGLYHFRDQILAGSPEAFFVLNADVCSDFPLSAMLEAHRRQRHPFLLLGTTANRTQSLNYGCIVENPQTHEVLHYVEKPSTFISDIINCGIYLFSPEALKPLRDVFQRNQQDGQLEDSPGLWPGAGTIRLEQDVFSALAGQGQIYVHLTDGIWSQIKSAGSALYASRLYLSRYQDTHPERLAKHTPGGPWIRGNVYIHPTAKVAPSAVLGPNVSIGKGVTVGEGVRLRESIVLHGATLQEHTCVLHSIVGWGSTVGRWARVEGTPSDPNPNDPRARMDSESLFKDGKLLPAITILGCRVRIPAEVLILNSIVLPHKELSRSFTNQIIL [GMPPA]”, the “solubility change mitosis (log2)” value in data set [1] is -0.00526. The “solubility in G1/S (log2)” value in data set [2] amounted to 0.0728. Further, the thermal stability score was 0.0726 in data set [3] (setting [5]) and -3.01 in data set [3] (cell cycle stage: mitosis). Moreover, the melting temperature turned out to be 54.4 °C in data set [4] (cell cycle stage: G1/S) and 53 °C in data set [4] (cell cycle stage: mitosis).

In the case of “MLKPQPLQQPSQPQQPPPTQQAVARRPPGGTSPPNGGLPGPLATSAAPPGPPAAASPCLGPVAAAGSGLRRGAEGILAPQPPPPQQHQERPGAAAIGSARGQSTGKGPPQSPVFEGVYNNSRMLHFLTAVVGSTCDVKVKNGTTYEGIFKTLSSKFELAVDAVHRKASEPAGGPRREDIVDTMVFKPSDVMLVHFRNVDFNYATKDKFTDSAIAMNSKVNGEHKEKVLQRWEGGDSNSDDYDLESDMSNGWDPNEMFKFNEENYGVKTTYDSSLSSYTVPLEKDNSEEFRQRELRAAQLAREIESSPQYRLRIAMENDDGRTEEEKHSAVQRQGSGRESPSLASREGKYIPLPQRVREGPRGGVRCSSSRGGRPGLSSLPPRGPHHLDNSSPGPGSEARGINGGPSRMSPKAQRPLRGAKTLSSPSNRPSGETSVPPPPAVGRMYPPRSPKSAAPAPISASCPEPPIGSAVPTSSASIPVTSSVSDPGVGSISPASPKISLAPTDVKELSTKEPGRTLEPQELARIAGKVPGLQNEQKRFQLEELRKFGAQFKLQPSSSPENSLDPFPPRILKEEPKGKEKEVDGLLTSEPMGSPVSSKTESVSDKEDKPPLAPSGGTEGPEQPPPPCPSQTGSPPVGLIKGEDKDEGPVAEQVKKSTLNPNAKEFNPTKPLLSVNKSTSTPTSPGPRTHSTPSIPVLTAGQSGLYSPQYISYIPQIHMGPAVQAPQMYPYPVSNSVPGQQGKYRGAKGSLPPQRSDQHQPASAPPMMQAAAAAGPPLVAATPYSSYIPYNPQQFPGQPAMMQPMAHYPSQPVFAPMLQSNPRMLTSGSHPQAIVSSSTPQYPSAEQPTPQALYATVHQSYPHHATQLHAHQPQPATTPTGSQPQSQHAAPSPVQHQAGQAPHLGSGQPQQNLYHPGALTGTPPSLPPGPSAQSPQSSFPQPAAVYAIHHQQLPHGFTNMAHVTQAHVQTGITAAPPPHPGAPHPPQVMLLHPPQSHGGPPQGAVPQSGVPALSASTPSPYPYIGHPQGEQPGQAPGFPGGADDRIREFSLAGGIWHGRAEGLQVGQDARVLGGE [ATXN2L]”, in data set [1], the “solubility change mitosis (log2)” value was found to be 0.367. For the same sequence, the “solubility in G1/S (log2)” value in data set [2] was -0.0191. Also, the values for the thermal stability score in data set [3] (setting [5]) and in data set [3] (cell cycle stage: mitosis) were -0.388 and -1.51, respectively. Moreover, the figures for the melting temperature in data set [4] (cell cycle stage: G1/S) and in data set [4] (cell cycle stage: mitosis) were 52.3 °C and 53.2 °C, respectively.

Regarding “MLLGGPPRSPRSGTSPKGPWSSTGHVQFGKSPQTWPRRTRPRSPEPAAPSGVRGSTWTRRRDSPRRAGPTALSRYVGHLWMGRRPPSPEARGPVPRSSAASRARRSLASPGISPGPLTATIGGAVAGGGPRQGRAEAHKEVFPGQRVGKMAAPMELFCWSGGWGLPSVDLDSLAVLTYARFTGAPLKVHKISNPWQSPSGTLPALRTSHGEVISVPHKIITHLRKEKYNADYDLSARQGADTLAFMSLLEEKLLPVLVHTFWIDTKNYVEVTRKWYAEAMPFPLNFFLPGRMQRQYMERLQLLTGEHRPEDEEELEKELYREARECLTLLSQRLGSQKFFFGDAPASLDAFVFSYLALLLQAKLPSGKLQVHLRGLHNLCAYCTHILSLYFPWDGAEVPPQRQTPAGPETEEEPYRRRNQILSVLAGLAAMVGYALLSGIVSIQRATPARAPGTRTLGMAEEDEEE [MTX1]”, in data set [1], the “solubility change mitosis (log2)” value was -0.12. Moreover, the “solubility in G1/S (log2)” value in data set [2] was determined as 0.309. For the same sequence, the figures for the thermal stability score in data set [3] (setting [5]) and in data set [3] (cell cycle stage: mitosis) were 0.166 and -0.623, respectively. In addition, the figures for the melting temperature in data set [4] (cell cycle stage: G1/S) and in data set [4] (cell cycle stage: mitosis) were 52.8 °C and 52.4 °C, respectively.

Turning to “MLLKEYRICMPLTVDEYKIGQLYMISKHSHEQSDRGEGVEVVQNEPFEDPHHGNGQFTEKRVYLNSKLPSWARAVVPKIFYVTEKAWNYYPYTITEYTCSFLPKFSIHIETKYEDNKGSNDTIFDNEAKDVEREVCFIDIACDEIPERYYKESEDPKHFKSEKTGRGQLREGWRDSHQPIMCSYKLVTVKFEVWGLQTRVEQFVHKVVRDILLIGHRQAFAWVDEWYDMTMDEVREFERATQEATNKKIGIFPPAISISSIPLLPSSVRSAPSSAPSTPLSTDAPEFLSVPKDRPRKKSAPETLTLPDPEKKATLNLPGMHSSDKPCRPKSE [PITPNC1]”, the “solubility change mitosis (log2)” value in data set [1] is -0.0509. For the same sequence, the “solubility in G1/S (log2)” value in data set [2] was -0.0542. Further, the thermal stability score is 0.0627 in data set [3] (setting [5]) and -1.13 in data set [3] (cell cycle stage: mitosis). Also, the values for the melting temperature in data set [4] (cell cycle stage: G1/S) and in data set [4] (cell cycle stage: mitosis) were 51.7 °C and 51.5 °C, respectively.
